For 14 sequences, protein production results are on record in a protein production outcome set (Wang et al. 2014).
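Also: failed if final PepcDB status was selected cloned or expressed and not failed if soluble or beyond.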

The data set in a line: label from the status in PepcDB records.
Turning to “MVKIGVCGPVGSGKTALIEALTRHMSKDYDMAVITNDIYTKEDAEFMCKNSVMPRERIIGVETGGCPHTAIREDASMNLEAVEEMHGRFPNLELLLIESGGDNLSATFNPELADFTIFVIDVAEGDKIPRKGGPGITRSDLLVINKIDLAPYVGADLKVMERDSKKMRGEKPFIFTNIRAKEGLDDVIAWIKRNALLED”, the protein production entry was “failed”.

Regarding “MVKLDRYIGSSVFMAILAVLGIILGLASLFAFIDEMGAVNETYTVVDVMSYVALTAPRRVYEMLPMAGLIGCLIGLGSLASNSELTIMRAAGVSVGRIVWAVMKPMLVLMLVGVLVGEYVAPATETQAQASRALAQGSGDAQSSKHGLWHRQGDEFIHINAVQPNGLLYGVTRYHFDDQRHMLSSSFARQARFHEDYWQLTDVTTTYFRDGHTEVISVPGERWDVALSPQLLSTVVMAPESLSISGLWGYIHYLADQGLNNGRYWLAFWVKVLQPLVTAALVLMAISFIFGPLRSVTLGQRVFTGVLVGFTFRIAQDLLGPSSLVFGFSPLFAVLVPAGICAVAGVWLLRRAG”, the protein production entry is “failed”. Turning to “MVKLNSNPSEKGTKPPSVEDGFQTVPLITPLEVNHLQLPAPEKVIVKTRTEYQPEQKNKGKFRVPKIAEFTVTILVSLALAFLACIVFLVVYKAFTYDHSCPEGFVYKHKRCIPASLDAYYSSQDPNSRSRFYTVISHYSVAKQSTARAIGPWLSAAAVIHEPKPPKTQGH”, the protein production entry is on record as “failed”. In the case of “MVKNGIILGKRYEVISKIGAGGMADVYKGKDHMLNRYVAIKVLKKEFKEDENFVRKFRSEAQAAAGLIHPNVVNVYDVGEDRGLYYMVMELVEGITLKEYIDKKGRLSHKETISIAIQMCTGIGVAHAANIIHRDIKPQNIIISKDGKVKVTDFGIAKATTSNTISSNAMGSVHYTSPEQARGGFSDQKSDIYSIGITLYEMVTGQVPFDGDSTVSVAIKHLQEEITPPSEIVPDIPYSLEQIILKCTQKNGERRYRNTGELIQDLKRSLVDPDGDFVVIPPLGNADTVIITDEELDDIRSSYDDEEEFDEYDEDEYGDEEEFDEYDEDDDEYDEYDDDEEYGGKGKKGKSSDDVNPRMKKVMKILTIVVAIIIVFILVFAIGKAAGIFKGGFGIDTVDTDEKTKVKVPNVVGMTEDEAKKTLNKKGLGFKVVAREESKKYEEGTVSKQKTEAGKRVAKNTTIQVVVSSGLVGDEITVPNVSNMSESEAQKALEDAGFEKITSDFAYSDSVAEGDVIGTTPAANARATKDTEIVMKVSKGSEKKTVPNVVGQQDGDAQNAITAAGLTVGTVTYEYYDDVPKGQVVSQTVAGGKKVAPGTSVGLTISSGPKPPEKVSVPPVTGISIEEARALLDGVGLKADIKYDSETVGTVGQVIKCNPGVGTQVDEGSTVTLIVISKSSQPDGGETESTQ”, the protein production result is “failed”. In the case of “MVKSKVKKVEKGKEGEEKRSTYVLLKKVLIPILVFGFAIYAFYLRHLTAGKYFPDPDTFYHFEIYKLVLKEGLPRYYPMSDAPFGSLIGEPLGLYLLPAAFYKVVSLFGYNELQAFLLWPPFVGFLGVIAVYLLGRKVLNEWTGLWGAVVLTVSTANFSRTFSGNARGDGPFMALFIFASVAMLYYLKESNKTRKIIYGTLFVLLTVISLGAWNGSPFGLMVLLGFASLQTIILFIFGKLEELKKFVKEFYPAYLAILAFGYALTFPGIVKIGGFIRFAFEVFLGLIFLLVIMLYGGRYLNYSDKKHRFLVVTIIVLLGFGGAYAYVGPKLFRLMGGAYQSTQVYETVQELAKTTIGDVKAYYGVESGNGLIFFLSIPGLLILLTKYLYDLFKKAKSDNETLFALVFYTMSLYLLYLAVRFLFLASYAVALFFGIFIGFSMDVIEKMKENIGIKAALGIVLSLMILVIPFVHAPVLARSARALKNTEIEVTGWEQALKWLRSNTSKYATATSWWDYGYWIESSLLGNRRASADGGHARDRDHILALFLARDGNISEVDFESWELNYFIIYLNDWAKFNAISYLGGAITRKEYNGDENGRGRVTTILLTQAAGNVYVNPYARIVIKVIQQNKTRRIAVNIGQLECSPILSVAFPGNIKIKGSGRCSDGSPFPYVVYLTPSLGVLAYYKVATSNFVKLAFGIPTSSYSEFAEKLFSNFIPVYQYGSVIVYEFRPFAIYKIEDFINGTWREVGKLSPGKHTLRLYISAFGRDIKNATLYVYALNGTKIIKRIKVGEIKYMNHLEEYPIIVNVTLPTAQKYRFILAQKGPVGVLTGPVRVNGKITNPAYIMREGESGRLELKVGVDKEYTADLYLRATFIYLVRKGGKSNEDYDASFEPHMDTFFITKLKEGIKLRPGENEIVVNAEMPKNAISSYKEKLEKEHGDKLIIRGIRVEPVFIVEKEYTMIEVSASAPHHSSE”, the protein production result is “failed”. On to “MVKTMSEVNFNSKAFTYADNALVQKSASEVLLNLLSIQPEEDVLDIGCGPGHITKKIAKITNGSVQGIDVSQGMIEQAISSNKDLPNLKYSVMDAENLELNTKFDVIVCNSCFQWFQKPDQVLMRCFNVLKEGGRIGIQAPATQSYCPNFISAIEKIRMHPYTREVFNHFKSPWFFFDSKDEYEQLFRNHGFDIIYSELREESNLFSVEQAYKIYQSGAENGYLNQSYYTVTLTDNYISTFRELVKEALQEQADNSGMINLKFERIYLVAKKQ”, for which the protein production result is reported as “failed”. As to “MVKVPVLRIGKVAAPTGADHALAGSAFPAKNAIADVNPPASPWIDKSVAAQRTEKAGLAAPRSEVTLDFVPPVTRRTPRITFPRRGRSDWTHSLTNSLRMSDTALVAAAVFAGFALNTNGLSLAAESPAFTHHLMTGLILGLVWLGALEVYRTRDPKVLGVGPEEYKRVLSASFRVFGFLGIVAVVFRLDAVSSFVLVSLPLGLVALTGSRWSFRRWLSHEKSRGRCLSRAIVVGEPQDVRYVIKQINRKSGAAYDILGACLPGARRGAVLKVDHLRVPVLSSIYGIAHTVRQTGANAVIVAGPVPGGNQFIQELGWQLEENAAELVLAATLTNVAGPRIHWRPVEGLPLMHVDIPHYSGGKHTLKRLMDITVSASALLILSPILLLLAAIVHHDSPGPVLFRQERVGRRGTTFHMLKFRSMVVDAESRLEELNTRDEGAGVLFKIRGDPRITRCGRWMRKYSLDELPQFWNVLVGNMSLVGPRPPLAREVSGYERHTHRRLLIKPGITGLWQINGRSDLPWDEAVRLDLYYVENWSIAGDLIIMWRTFRAMIQPSGAY”, the protein production result is on record as “failed”.

“MVKYEELLKTLENGINSEEGEIRLVRKSQGRFKEEFNFDLSLGSKPLLTLKVFLGRKPYWQPWVEVFGVNPNLRNVFFGSEAERKLYEFLSEHFGRIFVEYFEDKETTYELQKGVPPALSRLGFELLKLGYTYFRDWYIPEGLMEGGHKIQAEKPKTEEAKKRHLENLKKEFEEFIGKCEDEGLIKKVKERYNFLEHEGSS”: the protein production entry is recorded as “not failed”. As to “MVLETPVCSPIDKESSSDDVQLNKPPKKKRKLDVVYPPRDNTSSSSDVKPKVPGYCGVKAIGCNRSDELLAEVALHSYNSQTGTNLELMTVTQVMLQSVAHINYHMILDAFDPANNSLSSIEICLWDAAVKNNEKLRLVTTFCSLEGSGDKGSQWDPNGVDVLYTGVMPKWLDDGALSGSEKLHYYEVNDSDLQENKWLHLYAQVGAYSKWDLGMVKHFPLEIKKVVVQTMEDDIESNLKLKSSNAIFYITFTTSGGVECACIIRQTRNGRPQHMCLEINNVEMDK”, the protein production entry was “failed”. Regarding “MVLMRYVGKRDLFTVGKYLGTIMQGVGFVVALPVFVAIIYGEGNLQSFIIPAFISLGAGTVLKRYLPEECSVRLKHGMMVACLAWLWAGLIGSLIMISALNIDFTNAFFENMSAWTGSGLTIFSSVESLPKSILFLRSLEQWIGGLGVVIVVIGILIRPGTAASRLYKSEARDERIKPSIANTVKTIWWIYITYTVLGIVLYGLTGMPLFDAINNTLTNLSTGGMSIKNMNIGYYHSAAVYLVTMLLMILGGTSFLVHYQLIKGRFFSVLHDIQLQATVVFISIFTILAVYVGGVAPLESIYHVISALSCTGSSISSTPQMVAWPAYFKVLLITCMLIGMAAGSTTGAVKIIRVITVLKGVYWEIMRILAPEGSVMPRKISGKSVSDTEIREAGSYISLYFVLLFFTWSVLVVYGYDPLNSLFEAASAQGNVGLSMGITSFNLPVVPKMALILSMWLGRLEIIPVIVLIRGLVEAFKAG”, the protein production result was “failed”.

Take “MVMAPLPPVESLSLRQAIAQMIVVRGAGYLFDYERPYPQWEADQTTLQRWIEAGIGGVILLGGSAAEVAQKTKQLQSWAEIPLLIAADIEEGVGQRFRGATEFPPPMAFGEIWRTDPHQAIALAETMGATTAQEALSLGINWVLAPVLDVNNNPHNPVINIRAFGETPDQVSALGTAFIRGAQQYAVLTTAKHFPGHGDTATDSHLALPTISHDDTRLNTVELPPFKAAIQGGVDAVMNAHLMIPAWDQQYPATLSPAILTGQLRHKLGFKGLIVTDALVMGGITQFAAPDTVVVQAIAAGADILLMPPDVDGAIIAIETAIKTGQLSESRIYESVERIWQAKQKILTATPSTFPQGISGDRPETRKTVAMVLERATKHQKSLVKISSFPDNFARNLIVVDSVLKSPFLRPNCPAIAIPQRHGYAAEIVELKTLPRLQLEAIPTLIQCFLRGNPFTEKLADPIDVLQKIAAQIPLQGVIFYGSPYFLEALQTTLPEIPWWFSYGQMAIAQAEICTSLWEEAPQAAPSAAEFI”: the protein production entry was “not failed”. On to “MVMEKALTLQQMPDFIVSTIPKGQASYLVFGERSIGKKDVIDIVIKQLEKIGFRTGVEQVPSVGETYKNQTLNSIMDKITGKTEVRDKNTIIKEYDEFTRNNKEKIVIAVYGVEKLSMESKNLFLYMCRISRNRNVTLIGTYNADSTDEYDRFINLIASEDYINIIKIEKPTIEDIAFLVKKMGYKLPDDFVKEIARLTNYNIDSMKYALRYYQDLGVINDRKEINTVSFRYIPVPPTTELYYEKMINSLTDLEKNVAYLMVMLSNDIDVDSAAIILNRKRTEVLNIIRKLEDKGLVKFNGQVVGFYSDKIRRSVEKSMKTSDIAYMTSLIESSQLFMRMPPAQRMHILMKANKLDEIRDIIKEKGQSLVDGYNSVDEVIEDLEQLGNVFSEDSDVKKVLCHAYYLKGRFDKAISCYMDIKPDHDLDSMIDLSSIYSNMGKFEEAEKILEDAKNNFTDDYPQTIISYRIAALYYRMGRYKDTIDMLTPLLGKIDAENMSGVKAGILNILGNIDMTSYRYGDALKKYNEALEINRKLSNYAEISRNLNNIALIDVYTGKYDLAISILKELIETTYSTGDLVSRIYAIYNLSEIYYVIGKQEYAEGYIPLMMRILDVVSEKRVSFHIYRFLTMYYVGLLDFKMAKKYAELAIENAIMEDQKIMAIIFHKIINYVLTGEDPNIDTQEIDSTNFTDDYTSTFLIALAYYYRIIENQEMAKHYVDMAEEAAYKMKIPYVIVNASFHKAVILLSIGDLDGFRRHFERMQKPPTTIQFYDDSFEIFRSIYDGNFDAIKSSKYRIIEEDHVNGTLKGLMPVILNAFALYKFSGIPDDLHHLINVTPEPYSRLLALITNYH”, for which the protein production result is on record as “failed”. For the sequence “MVMPESHIHNIPMEQCVLVALMTFALSYELIAQDLDEGCFYPERHKQIYNAIVELANENQPYDVVMVEQRLKSKNLLHVLGGEQYLKIMLAEAPSSFHSMEPYITQLKKLKAHRQVEWLGQRISSMAQDTTQPDVFAEAENILGQVDNQEQSDQGMSFEAALDMALTEMIEKAEAKDKQQFTGVKFNLKHLDELLGTVQKGHFCVVGGRPGSGKSTLAQMLALDTASSFGKGVLFISAEMDQSTLANRMISALGLIPYHNIHNAELYNGLMKDYADAKAAYQRLPIWIQPKQKPSLSEVRSYARRAKRRYKELGCIIVDYLQLLRDPSKKDRFQEVSSISRELKSMAKEFECPVIALVQLNREAEKGKRPKASDIKESGQIEQDADQIILVNPLTDPEDSTKPMGITELIVVKNRHGKRGAVRVLDYLETCRFRSVEEQAEP”, the protein production entry is given as “failed”. For “MVMSIEASCHCGETVFEVTEAPSSVTRCTCSLCAKRGSLWAYYKPAQFRLLSPPENVTTYLWGSRTVKHHFCASCGCGTYSESPDWSTGKPDFDNPKVAVNARLFDDFDLDAVPVNMIDGKNLWLEHHHHHH”, the protein production result is “not failed”.
